Laboratory results as given in patent US20260070975A1 (SANTA ANA BIO, published 2026).
Substitutions are numbered along the chain they refer to.

Experiments:
Assay in all cases: flow cytometry on HEK293 cells expressing the target
[1] = biological target: T1, siglec 11 expressed on HEK293 cells (UniProt Q96RL6 28-698, limits assumed)
T1 construct: whole, on cells; also called Siglec-6 family member
T1 sequence (looked up): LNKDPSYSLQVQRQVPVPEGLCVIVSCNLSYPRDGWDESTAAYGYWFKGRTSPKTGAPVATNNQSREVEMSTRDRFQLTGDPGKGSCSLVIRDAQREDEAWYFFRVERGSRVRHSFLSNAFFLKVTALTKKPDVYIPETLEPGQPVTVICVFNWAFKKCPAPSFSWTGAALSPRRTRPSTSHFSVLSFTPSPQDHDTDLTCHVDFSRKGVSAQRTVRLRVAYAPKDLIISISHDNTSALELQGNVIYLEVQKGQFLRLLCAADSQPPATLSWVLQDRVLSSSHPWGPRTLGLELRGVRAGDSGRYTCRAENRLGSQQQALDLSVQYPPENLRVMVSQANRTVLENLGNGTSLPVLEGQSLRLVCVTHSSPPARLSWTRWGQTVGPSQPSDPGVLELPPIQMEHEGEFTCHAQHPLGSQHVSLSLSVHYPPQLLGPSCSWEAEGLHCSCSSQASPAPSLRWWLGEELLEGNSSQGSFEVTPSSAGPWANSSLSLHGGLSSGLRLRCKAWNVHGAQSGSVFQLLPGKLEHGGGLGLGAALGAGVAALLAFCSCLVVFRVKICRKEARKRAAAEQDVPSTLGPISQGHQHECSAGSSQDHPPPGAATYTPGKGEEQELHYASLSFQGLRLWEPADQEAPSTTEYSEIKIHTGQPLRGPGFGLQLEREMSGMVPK
Description: (§1) Cultured HEK293 cells expressing human siglec-6, cynomolgus siglec-6, or siglec 6 family members were resuspended in FACS Blocking Buffer (PBS+10% normal human serum) for 30 minutes. Following washing, cells were incubated with siglec-6 antibodies in FACS Buffer (PBS+0.5% bovine serum albumin+0.09% sodium azide) and incubated at 4° C. for 30 minutes, washed and incubated with PE-labeled anti-human secondary antibody. Cells were incubated at 4° C. for 30 minutes in the dark. Following washing, cytofluorimetric analysis was conducted using a BD FACS Symphony A3 (BD Biosciences). Cells were sorted by scatter properties and separated for single cell analysis using side scatter width vs side scatter area. Antibody binding to cells was quantitated by measuring fluorescent emissions of excitation wavelength of 561 nm using a 586/15 nm filter. Data analysis was performed using FlowJo Software.

[2] = biological target: T2, siglec 4 expressed on HEK293 cells (UniProt P20916 20-626, limits assumed)
T2 construct: whole, on cells; also called Siglec-6 family member
T2 sequence (looked up): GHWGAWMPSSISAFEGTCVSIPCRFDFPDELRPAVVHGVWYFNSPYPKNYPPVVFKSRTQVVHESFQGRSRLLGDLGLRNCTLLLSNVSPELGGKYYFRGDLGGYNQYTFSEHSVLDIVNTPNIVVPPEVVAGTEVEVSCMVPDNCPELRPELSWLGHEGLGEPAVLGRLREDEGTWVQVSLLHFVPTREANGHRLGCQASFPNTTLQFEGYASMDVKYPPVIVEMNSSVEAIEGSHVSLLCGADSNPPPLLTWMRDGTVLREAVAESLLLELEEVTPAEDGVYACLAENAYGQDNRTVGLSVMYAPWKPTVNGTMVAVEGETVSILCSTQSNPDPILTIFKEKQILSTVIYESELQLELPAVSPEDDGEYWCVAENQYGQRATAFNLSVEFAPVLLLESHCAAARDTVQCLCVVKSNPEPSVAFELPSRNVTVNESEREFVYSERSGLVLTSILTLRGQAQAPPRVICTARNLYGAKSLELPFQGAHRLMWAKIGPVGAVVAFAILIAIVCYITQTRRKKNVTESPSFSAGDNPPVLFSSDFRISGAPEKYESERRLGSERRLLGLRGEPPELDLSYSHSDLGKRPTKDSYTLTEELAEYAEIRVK
Description: as §1

[3] = biological target: T3, siglec 7 expressed on HEK293 cells (UniProt Q9Y286 19-467, limits assumed)
T3 construct: whole, on cells; also called Siglec-6 family member
T3 sequence (Q9Y286 19-467 limits assumed): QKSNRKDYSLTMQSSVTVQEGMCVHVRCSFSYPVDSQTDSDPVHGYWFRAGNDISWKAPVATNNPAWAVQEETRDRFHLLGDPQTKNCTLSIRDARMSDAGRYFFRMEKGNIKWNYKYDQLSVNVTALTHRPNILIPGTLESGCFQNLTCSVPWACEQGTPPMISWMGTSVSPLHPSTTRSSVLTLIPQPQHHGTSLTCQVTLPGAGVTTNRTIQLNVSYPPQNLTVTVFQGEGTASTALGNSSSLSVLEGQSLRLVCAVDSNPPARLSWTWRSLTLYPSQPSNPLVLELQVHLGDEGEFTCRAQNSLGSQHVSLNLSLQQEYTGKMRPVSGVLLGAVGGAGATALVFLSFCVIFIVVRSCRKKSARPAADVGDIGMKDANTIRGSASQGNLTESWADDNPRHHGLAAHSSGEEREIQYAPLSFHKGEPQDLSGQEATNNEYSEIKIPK
Description: as §1

[4] = biological target: T4, siglec 3 expressed on HEK293 cells (UniProt P20138 18-364, limits assumed)
T4 construct: whole, on cells; also called Siglec-6 family member
T4 sequence (P20138 18-364 limits assumed): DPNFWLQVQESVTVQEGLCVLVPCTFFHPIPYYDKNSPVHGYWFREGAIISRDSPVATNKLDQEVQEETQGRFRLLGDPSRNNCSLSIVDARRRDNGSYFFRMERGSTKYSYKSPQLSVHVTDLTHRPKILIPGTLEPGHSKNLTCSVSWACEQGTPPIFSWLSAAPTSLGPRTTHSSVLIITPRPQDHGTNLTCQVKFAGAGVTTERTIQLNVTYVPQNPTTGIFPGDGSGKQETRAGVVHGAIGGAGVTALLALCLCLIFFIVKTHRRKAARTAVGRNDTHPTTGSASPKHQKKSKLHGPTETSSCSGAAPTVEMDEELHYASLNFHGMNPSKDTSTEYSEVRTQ
Description: as §1

[5] = biological target: T5, siglec 2 expressed on HEK293 cells (UniProt P20273 20-847, limits assumed)
T5 construct: whole, on cells; also called Siglec-6 family member
T5 sequence (looked up): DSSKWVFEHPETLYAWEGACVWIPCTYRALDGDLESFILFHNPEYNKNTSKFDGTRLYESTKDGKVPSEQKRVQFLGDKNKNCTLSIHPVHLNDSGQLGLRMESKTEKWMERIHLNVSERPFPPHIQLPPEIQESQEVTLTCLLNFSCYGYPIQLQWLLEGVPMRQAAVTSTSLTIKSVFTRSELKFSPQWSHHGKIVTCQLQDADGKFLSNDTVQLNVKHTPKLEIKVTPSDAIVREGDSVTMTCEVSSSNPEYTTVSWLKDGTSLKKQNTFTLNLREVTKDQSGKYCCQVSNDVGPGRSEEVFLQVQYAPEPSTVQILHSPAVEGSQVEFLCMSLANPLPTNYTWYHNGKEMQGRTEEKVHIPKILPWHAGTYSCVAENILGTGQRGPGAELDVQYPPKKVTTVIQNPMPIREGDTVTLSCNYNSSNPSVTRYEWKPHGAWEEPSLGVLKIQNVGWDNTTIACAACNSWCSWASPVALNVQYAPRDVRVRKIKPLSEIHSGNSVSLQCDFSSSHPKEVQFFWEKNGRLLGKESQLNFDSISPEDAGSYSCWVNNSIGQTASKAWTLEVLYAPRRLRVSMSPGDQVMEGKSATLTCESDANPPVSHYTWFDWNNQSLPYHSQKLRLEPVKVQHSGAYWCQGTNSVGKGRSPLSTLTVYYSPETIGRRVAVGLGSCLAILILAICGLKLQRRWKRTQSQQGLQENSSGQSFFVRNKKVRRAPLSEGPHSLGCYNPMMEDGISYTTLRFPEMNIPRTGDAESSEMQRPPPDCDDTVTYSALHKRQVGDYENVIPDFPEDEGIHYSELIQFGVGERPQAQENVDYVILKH
Description: as §1

Measured: binding result

B1: hRND-2 (antibody, human IgG1, kappa, V domains shown)
VH: QVQLVQSGAEVKKPGASVKVSCKASGYAFTSYWMHWVRQAPGQRLEWMGEIYPTNGGTTYAQKFQGRVTMTVDKSTSTAYMELSRLRSDDTAVYYCTIEDFYAMDYWGQGTTVTVSS
VL: DIVMTQTPLSLSVTPGQPASISCKSSQSLLDSDGKTSLNWLLQKPGQSPQRLIYLVSKLDSGVPDRFSGSGSGTDFTLKISRVEAEDVGVYYCWQGTHFPYTFGQGTKLEIKR
notes: also called humanized RND-2; hRND-H2 / hRND-L3; copies: 2 + 2
no binding: [1] | [2] | [3] | [4] | [5]

B2: hRND-5 (antibody, human IgG1, kappa, V domains shown)
VH: B1 VH with V20L, M48I, A61N, Q62E, Q65K, G66R, V68A, M70L
VL: B1 VL
notes: also called humanized RND-5; hRND-H3b / hRND-L3; copies: 2 + 2
no binding: [1] | [2] | [3] | [4] | [5]

B3: hRND-4 (antibody, human IgG1, kappa, V domains shown)
VH: B1 VH with A61N, Q62E, Q65K, G66R
VL: B1 VL
notes: also called humanized RND-4; hRND-H2b / hRND-L3; copies: 2 + 2
no binding: [1] | [2] | [3] | [4] | [5]

B4: hRND-3 (antibody, human IgG1, kappa, V domains shown)
VH: B1 VH with V20L, M48I, V68A, M70L
VL: B1 VL
notes: also called humanized RND-3; hRND-H3 / hRND-L3; copies: 2 + 2
no binding: [1] | [2] | [3] | [4] | [5]
